Source: patent US20200079848A1 (Five Prime, published 2020)
Values joined by “and” are separate entries in the source; they are usually repeats but may differ in a detail not shown here. Equal values may be shown once.

Key:
hILT4-His-Avi tag [1] = molecular target: T1, hILT4-His-Avi tag (human, UniProt Q8N423 22-459); experiment: SPR Biacore T200, 37 C; antibody captured on protein A/G chip, monomeric hILT4 as analyte; kinetic fit
T1 construct: also called monomeric human ILT4; extracellular region of hILT4 linked to a His-Avi tag
Protocol: (§1) The binding kinetics of the parent and germline reversion mutant anti-hILT4 antibodies (in the context of IgG1.3) were measured via Surface Plasmon Resonance (SPR) using a Biacore® T200 instrument. The assay temperature was 37° C. and the running buffer was PBS pH 7.4 supplemented with 0.05% Tween-20. Allanti-hILT4 antibodies were captured on a CM4 chip with pre-immobilized protein A/G (Pierce Thermo Scientific catalog number 21186). […] Monomeric human ILT4 was injected as analyte. […] The hILT4 used in this experiment, comprising the extracellular region of hILT4 linked to a His-Avi tag, consists of the following amino acid sequence: […]

rhILT4-Fc [2] = molecular target: T2, rhILT4-Fc (human, UniProt Q8N423-1 22-461); experiment: flow cytometry blocking assay: antibody titrated (12 points) with rhILT4-Fc fixed at 30 µg/ml; rhILT4-Fc bound to HLA-A overexpressing CHO cells read as % Positive; blocked ligand: HLA-A; the IC50 table has no unit, the concentration axis is in ug/mL
T2 construct: also called rhILT4-Fc fusion protein with a murine Fc tail; not shown: murine Fc tail

hILT4-His-Avi tag [3] = molecular target: T1, hILT4-His-Avi tag; experiment: SPR Biacore T200, 37 C; antibody captured by anti-human Fc on CM4 chip, hILT4-His-Avi as analyte; 1:1 Langmuir fit
Protocol: The running buffer was 10 mM HEPES pH 7.4 supplemented with 0.05% Tween-20 and 1 g/L BSA. All anti-ILT4 antibodies were captured on a CM4 chip with pre-immobilized anti-human Fc capture antibody from Southern Biotech (catalog number 2081-01). […] All data were double-referenced and fitted to a 1:1 Langmuir model with mass transport using Biacore T200 Evaluation Software version 3.1.

human LILRA6 = molecular target: T3, human LILRA6 (human, UniProt Q6PI73 24-481); experiment: flow cytometry, 293T transfectants, antibody 20 µg/ml; stacked histograms, control: parental cells
T3 construct: whole, on cells; also called hLILRA6
Protocol: (§2) Individual ILT family members were overexpressed in 293T cells. Each transfectant was stained with 20 μg/ml of anti-ILT4 antibodies followed by 1 μg/ml of anti-human IgG secondary mAb. Binding of the antibodies to each transfectant was measured by flow cytometry.

human ILT2 = molecular target: T4, human ILT2 (human, UniProt Q8NHL6 24-650); experiment: as above
T4 construct: whole, on cells; also called hILT2
Protocol: as §2

human ILT3 = molecular target: T5, human ILT3 (human, UniProt Q8NHJ6 22-448); experiment: as above
T5 construct: whole, on cells; also called hILT3
Protocol: as §2

human LILRA3 = molecular target: T6, human LILRA3 (human, UniProt Q8N6C8 24-439); experiment: as above
T6 construct: whole, on cells; also called hLILRA3; LIRA3
Protocol: as §2

human LIR8 = molecular target: T7, human LIR8 (human, UniProt O75023 24-590); experiment: as above
T7 construct: whole, on cells; also called hLIR8
Protocol: as §2

human LILRA2 = molecular target: T8, human LILRA2 (human, UniProt Q8N149 24-483); experiment: as above
T8 construct: whole, on cells; also called hLILRA2
Protocol: as §2

human LILRA5 = molecular target: T9, human LILRA5 (human, UniProt A6NI73 42-299); experiment: as above
T9 construct: whole, on cells; also called hLILRA5
Protocol: as §2

human ILT5 = molecular target: T10, human ILT5 (human, UniProt O75022 24-631); experiment: as above
T10 construct: whole, on cells; also called hILT5; LILRB3
Protocol: as §2

human LILRA4 = molecular target: T11, human LILRA4 (human, UniProt P59901 24-499); experiment: as above
T11 construct: whole, on cells; also called hLILRA4
Protocol: as §2

human LILRA1 = molecular target: T12, human LILRA1 (human, UniProt O75019 17-489); experiment: as above
T12 construct: whole, on cells; also called hLILRA1; LIRA1
Protocol: as §2

hILT4-His-Avi tag [4] = molecular target: T1, hILT4-His-Avi tag; experiment: SPR Biacore T200, 37 C; antibody captured on protein A/G chip, monomeric hILT4 as analyte; steady state fit
Protocol: as §1

[5] = molecular target: T13, human ILT4 (hILT4) expressed on cells (human, UniProt Q8N423 22-597); experiment: flow cytometry on hILT4-transfected CHO cells, PE anti-human IgG secondary, GMFI (PE); EC50 from the table below the graph; the table has no unit, the concentration axis is in ug/mL
T13 construct: hILT4 on transfected CHO or 293T cells, or native on human monocytes and macrophages; also called LILRB2

[6] = molecular target: T13, human ILT4 (hILT4) expressed on cells; experiment: flow cytometry cross-blocking on hILT4 CHO cells: unlabelled antibody titrated from 40 µg/mL, then PE-21D9.IgG1.1f at 1.5 µg/mL; competitor: PE-21D9; GMFI (PE) falls from about 595 to about 60; the table calls the value EC50 and has no unit, the concentration axis is in µg/mL
From the text: (§3) After washing, the samples were acquired on a FACSCanto™ cytometer (BD Bioscience, San Jose) and analyzed with Flowjo™ software (Tree Star, Inc, Ashland, Oreg.).

[7] = molecular target: T13, human ILT4 (hILT4) expressed on cells; experiment: flow cytometry on human monocytes of a healthy donor, directly labelled antibody, GMFI; EC50 from the table below the graph; the table has no unit, the concentration axis is in ug/mL
From the text: In FIG. 18B, monocytes selected from a normal healthy donor's peripheral blood were stained with individual anti-ILT4 antibodies conjugated to […].

rhILT4-Fc [8] = molecular target: T2, rhILT4-Fc; experiment: flow cytometry blocking assay: antibody titrated (12 points) with rhILT4-Fc fixed at 30 µg/ml; rhILT4-Fc bound to HLA-B overexpressing CHO cells read as % Positive; blocked ligand: HLA-B; the IC50 table has no unit, the concentration axis is in ug/mL
[9] = molecular target: T13, human ILT4 (hILT4) expressed on cells; experiment: flow cytometry cross-blocking on hILT4 CHO cells: unlabelled antibody titrated from 40 µg/mL, then PE-2H2.IgG1.1f at 1.5 µg/mL; competitor: PE-2H2; GMFI (PE) falls from about 310 to about 45; the table calls the value EC50 and has no unit, the concentration axis is in µg/mL
From the text: as §3

[10] = molecular target: T13, human ILT4 (hILT4) expressed on cells; experiment: antibody titration flow cytometry binding assay on transfected cells, nonlinear regression
rhILT4-Fc [11] = molecular target: T2, rhILT4-Fc; experiment: flow cytometry blocking assay: antibody titrated (12 points) with rhILT4-Fc fixed at 30 µg/ml; rhILT4-Fc bound to HLA-B overexpressing CHO cells read as % Positive; blocked ligand: HLA-B; the IC50 table has no unit, the concentration axis is in ug/mL; remark: listed apart in the source
rhILT4-Fc [12] = molecular target: T2, rhILT4-Fc; experiment: flow cytometry blocking assay: antibody titrated (12 points) with rhILT4-Fc fixed at 30 µg/ml; rhILT4-Fc bound to HLA-A overexpressing CHO cells read as % Positive; blocked ligand: HLA-A; the IC50 table has no unit, the concentration axis is in ug/mL; remark: listed apart in the source

T1 sequence (Q8N423 other isoform, or with tags, fused parts or gaps): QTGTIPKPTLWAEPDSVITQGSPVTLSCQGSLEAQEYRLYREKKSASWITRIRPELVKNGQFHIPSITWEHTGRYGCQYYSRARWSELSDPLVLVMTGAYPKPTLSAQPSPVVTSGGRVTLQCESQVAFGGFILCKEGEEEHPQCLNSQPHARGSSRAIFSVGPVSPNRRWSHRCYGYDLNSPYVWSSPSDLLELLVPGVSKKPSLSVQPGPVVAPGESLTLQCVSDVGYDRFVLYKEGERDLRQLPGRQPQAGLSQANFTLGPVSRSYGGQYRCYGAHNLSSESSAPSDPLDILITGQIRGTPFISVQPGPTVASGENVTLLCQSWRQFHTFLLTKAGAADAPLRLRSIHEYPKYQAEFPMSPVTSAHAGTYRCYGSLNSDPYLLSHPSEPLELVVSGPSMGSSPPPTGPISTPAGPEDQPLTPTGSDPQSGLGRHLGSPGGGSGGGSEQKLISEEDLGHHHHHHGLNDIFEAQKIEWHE
T13 sequence (Q8N423 other isoform, or with tags, fused parts or gaps): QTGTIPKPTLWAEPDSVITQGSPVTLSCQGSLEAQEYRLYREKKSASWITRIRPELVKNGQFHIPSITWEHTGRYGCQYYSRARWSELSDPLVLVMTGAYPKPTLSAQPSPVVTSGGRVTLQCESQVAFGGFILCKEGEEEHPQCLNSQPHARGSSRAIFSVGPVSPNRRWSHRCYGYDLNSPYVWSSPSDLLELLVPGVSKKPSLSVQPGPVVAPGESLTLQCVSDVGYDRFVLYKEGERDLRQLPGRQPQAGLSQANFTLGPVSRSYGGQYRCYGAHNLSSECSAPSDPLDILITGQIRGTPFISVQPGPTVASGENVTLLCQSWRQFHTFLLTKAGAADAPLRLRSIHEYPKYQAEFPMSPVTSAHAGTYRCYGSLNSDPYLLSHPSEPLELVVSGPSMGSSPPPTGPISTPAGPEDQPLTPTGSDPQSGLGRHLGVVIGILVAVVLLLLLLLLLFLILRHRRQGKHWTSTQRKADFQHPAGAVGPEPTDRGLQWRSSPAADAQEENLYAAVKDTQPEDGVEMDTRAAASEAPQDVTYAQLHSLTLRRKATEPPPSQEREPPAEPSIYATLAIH
T2 sequence (Q8N423 other isoform, or with tags, fused parts or gaps): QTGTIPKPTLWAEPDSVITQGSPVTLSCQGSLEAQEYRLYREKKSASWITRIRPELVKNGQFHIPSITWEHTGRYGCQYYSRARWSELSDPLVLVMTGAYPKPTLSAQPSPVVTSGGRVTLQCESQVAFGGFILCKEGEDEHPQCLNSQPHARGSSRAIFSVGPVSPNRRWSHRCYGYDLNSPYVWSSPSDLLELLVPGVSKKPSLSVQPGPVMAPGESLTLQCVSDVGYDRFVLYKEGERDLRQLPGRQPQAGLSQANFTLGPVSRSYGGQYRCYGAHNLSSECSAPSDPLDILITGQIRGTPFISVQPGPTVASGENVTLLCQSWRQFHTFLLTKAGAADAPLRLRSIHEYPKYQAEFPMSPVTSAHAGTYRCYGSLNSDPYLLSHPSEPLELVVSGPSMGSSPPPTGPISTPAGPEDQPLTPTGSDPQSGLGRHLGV
T6 sequence (Q8N6C8 24-439): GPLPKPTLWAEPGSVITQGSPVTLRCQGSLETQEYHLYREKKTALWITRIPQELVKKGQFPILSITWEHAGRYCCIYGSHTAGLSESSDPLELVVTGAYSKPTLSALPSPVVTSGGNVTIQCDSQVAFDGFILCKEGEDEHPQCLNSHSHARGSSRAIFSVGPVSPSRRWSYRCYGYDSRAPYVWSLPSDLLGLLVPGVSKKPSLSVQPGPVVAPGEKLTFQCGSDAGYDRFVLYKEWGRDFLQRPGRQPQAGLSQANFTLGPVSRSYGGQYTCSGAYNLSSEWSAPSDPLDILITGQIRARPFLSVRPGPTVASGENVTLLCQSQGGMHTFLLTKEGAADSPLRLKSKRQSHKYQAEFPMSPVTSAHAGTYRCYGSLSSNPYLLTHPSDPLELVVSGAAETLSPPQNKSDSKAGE
T12 sequence (O75019 17-489): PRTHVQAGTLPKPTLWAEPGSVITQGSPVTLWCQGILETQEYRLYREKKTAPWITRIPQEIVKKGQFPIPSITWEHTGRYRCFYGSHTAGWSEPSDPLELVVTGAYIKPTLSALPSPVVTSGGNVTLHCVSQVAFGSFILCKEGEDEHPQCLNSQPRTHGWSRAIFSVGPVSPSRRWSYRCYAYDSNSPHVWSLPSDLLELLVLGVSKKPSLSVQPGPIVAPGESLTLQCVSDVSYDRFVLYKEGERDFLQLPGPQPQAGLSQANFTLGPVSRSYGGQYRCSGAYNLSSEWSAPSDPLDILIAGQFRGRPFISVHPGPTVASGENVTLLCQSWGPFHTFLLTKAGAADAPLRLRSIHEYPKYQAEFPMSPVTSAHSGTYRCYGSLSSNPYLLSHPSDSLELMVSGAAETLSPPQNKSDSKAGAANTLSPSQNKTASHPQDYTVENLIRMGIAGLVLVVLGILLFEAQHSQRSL
T7 sequence (O75023 24-590): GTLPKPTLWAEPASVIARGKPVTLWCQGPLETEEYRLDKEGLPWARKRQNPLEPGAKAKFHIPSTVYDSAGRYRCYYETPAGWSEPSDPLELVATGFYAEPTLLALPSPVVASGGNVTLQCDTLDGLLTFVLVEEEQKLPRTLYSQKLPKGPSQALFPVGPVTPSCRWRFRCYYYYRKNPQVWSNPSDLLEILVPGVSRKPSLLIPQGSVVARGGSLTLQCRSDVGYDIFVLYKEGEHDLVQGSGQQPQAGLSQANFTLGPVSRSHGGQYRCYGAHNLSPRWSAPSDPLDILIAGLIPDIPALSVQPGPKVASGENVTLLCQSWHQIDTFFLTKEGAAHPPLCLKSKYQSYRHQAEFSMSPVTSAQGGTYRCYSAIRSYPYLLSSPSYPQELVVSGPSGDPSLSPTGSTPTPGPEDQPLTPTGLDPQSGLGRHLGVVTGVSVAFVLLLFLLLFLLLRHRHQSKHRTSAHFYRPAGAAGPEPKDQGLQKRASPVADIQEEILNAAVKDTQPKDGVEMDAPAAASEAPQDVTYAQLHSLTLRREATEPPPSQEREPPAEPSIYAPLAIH
T8 sequence (Q8N149 24-483): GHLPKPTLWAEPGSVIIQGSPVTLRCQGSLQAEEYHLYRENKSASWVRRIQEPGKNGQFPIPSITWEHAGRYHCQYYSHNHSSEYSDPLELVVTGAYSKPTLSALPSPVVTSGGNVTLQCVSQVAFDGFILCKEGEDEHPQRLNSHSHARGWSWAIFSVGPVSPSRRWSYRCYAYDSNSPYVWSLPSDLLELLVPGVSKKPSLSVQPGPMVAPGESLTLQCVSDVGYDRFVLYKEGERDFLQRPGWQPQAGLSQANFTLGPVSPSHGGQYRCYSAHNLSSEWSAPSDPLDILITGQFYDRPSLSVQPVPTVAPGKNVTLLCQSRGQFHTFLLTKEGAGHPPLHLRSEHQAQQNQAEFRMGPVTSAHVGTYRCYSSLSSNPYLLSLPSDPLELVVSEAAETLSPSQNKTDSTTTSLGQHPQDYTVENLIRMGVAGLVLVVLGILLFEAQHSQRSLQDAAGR
T11 sequence (P59901 24-499): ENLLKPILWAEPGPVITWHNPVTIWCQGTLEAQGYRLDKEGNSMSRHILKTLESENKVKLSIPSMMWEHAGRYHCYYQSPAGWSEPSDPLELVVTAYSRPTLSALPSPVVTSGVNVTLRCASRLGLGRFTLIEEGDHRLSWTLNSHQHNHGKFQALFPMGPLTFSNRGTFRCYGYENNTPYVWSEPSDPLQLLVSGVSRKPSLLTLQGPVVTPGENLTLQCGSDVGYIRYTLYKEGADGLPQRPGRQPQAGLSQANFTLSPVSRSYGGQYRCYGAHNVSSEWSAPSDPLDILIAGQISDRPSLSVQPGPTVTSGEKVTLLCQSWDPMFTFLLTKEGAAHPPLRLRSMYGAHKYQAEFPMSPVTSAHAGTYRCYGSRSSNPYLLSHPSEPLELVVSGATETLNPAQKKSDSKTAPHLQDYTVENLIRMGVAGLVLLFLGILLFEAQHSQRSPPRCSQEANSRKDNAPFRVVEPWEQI
T3 sequence (Q6PI73 24-481): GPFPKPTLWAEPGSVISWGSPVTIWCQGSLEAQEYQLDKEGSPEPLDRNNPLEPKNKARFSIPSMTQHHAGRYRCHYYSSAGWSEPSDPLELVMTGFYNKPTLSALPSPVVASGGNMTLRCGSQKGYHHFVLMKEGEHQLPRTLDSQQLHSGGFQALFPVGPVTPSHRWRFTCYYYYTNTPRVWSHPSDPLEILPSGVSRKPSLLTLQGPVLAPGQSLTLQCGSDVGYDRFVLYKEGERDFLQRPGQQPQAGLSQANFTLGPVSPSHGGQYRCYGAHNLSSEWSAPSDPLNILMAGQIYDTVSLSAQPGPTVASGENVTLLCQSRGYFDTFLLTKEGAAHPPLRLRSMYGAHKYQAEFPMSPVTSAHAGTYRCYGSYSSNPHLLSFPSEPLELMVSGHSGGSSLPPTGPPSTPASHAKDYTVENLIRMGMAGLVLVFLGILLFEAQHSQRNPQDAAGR
T4 sequence (Q8NHL6 24-650): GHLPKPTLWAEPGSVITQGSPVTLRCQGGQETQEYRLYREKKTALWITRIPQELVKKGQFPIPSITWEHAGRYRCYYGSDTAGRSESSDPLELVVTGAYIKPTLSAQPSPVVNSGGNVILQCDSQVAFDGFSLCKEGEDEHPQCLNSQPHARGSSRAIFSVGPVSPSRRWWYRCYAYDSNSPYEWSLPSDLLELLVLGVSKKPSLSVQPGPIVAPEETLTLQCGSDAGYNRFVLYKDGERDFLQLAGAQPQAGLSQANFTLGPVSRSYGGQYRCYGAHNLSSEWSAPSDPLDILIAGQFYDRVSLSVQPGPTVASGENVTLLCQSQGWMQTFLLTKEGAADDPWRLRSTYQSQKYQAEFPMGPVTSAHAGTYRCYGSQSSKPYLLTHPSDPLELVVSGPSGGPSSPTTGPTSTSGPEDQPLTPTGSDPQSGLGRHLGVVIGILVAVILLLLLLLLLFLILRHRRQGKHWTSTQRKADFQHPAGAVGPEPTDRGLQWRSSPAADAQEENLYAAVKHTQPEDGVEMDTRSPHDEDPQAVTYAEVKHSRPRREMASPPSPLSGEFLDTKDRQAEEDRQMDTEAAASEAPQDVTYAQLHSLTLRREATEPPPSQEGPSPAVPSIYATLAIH

binding result (human LILRA6)	binding result (human ILT2)	binding result (human ILT3)	binding result (human LILRA3)	binding result (human LIR8)	binding result (human LILRA2)	binding result (human ILT5)	binding result (human LILRA4)	binding result (human LILRA1)	Binder	other results
no binding (tested: 20 µg/ml)	no binding (tested: 20 µg/ml)	no binding (tested: 20 µg/ml)	no binding (tested: 20 µg/ml)	no binding (tested: 20 µg/ml)	no binding (tested: 20 µg/ml)	no binding (tested: 20 µg/ml)	no binding (tested: 20 µg/ml)	no binding (tested: 20 µg/ml)	10F10.IgG1.3 (antibody, V domains shown, Fully human antibody, IgG1.3 heavy chain constant region (L234A, L235E, G237A), kappa light chain; also called 10F10 WT; ILT4.10.IgG1.3) VH: QVQLVESGGGVVQPGRSLRLSCAASGFTFSSYAMHWVRQAPGKGLEWVAIISYDEYNKYYADSVKGRFTISRDNSKNTLYLQMNSLRAEDTAVYYCAREWVGIRYWGQGTLVTVSS VL: AIQLTQSPSSLSASVGDRVTITCRASQGISSALAWFQQKPGKAPKLLIYDASSLESGVPSRFTGSGSGTDFTLTISSLQPEDFATYYCQQFNSYPITFGQGTRLEIKR	Kd (hILT4-His-Avi tag [1]): 14 nM and 15 nM; koff (hILT4-His-Avi tag [1]): 0.023 s⁻¹ and 0.02 s⁻¹; kon (hILT4-His-Avi tag [1]): 1.6e+06 M⁻¹ s⁻¹ and 1.3e+06 M⁻¹ s⁻¹; IC50 (rhILT4-Fc [2]): 3.6 µg/mL; Kd (hILT4-His-Avi tag [3]): 22 nM; app. act. (hILT4-His-Avi tag [3]): 100%; koff (hILT4-His-Avi tag [3]): 0.026 s⁻¹; kon (hILT4-His-Avi tag [3]): 1.2e+06 M⁻¹ s⁻¹; binding result (human LILRA5): no binding (tested: 20 µg/ml); Kd (hILT4-His-Avi tag [4]): 19 nM and 18 nM; EC50 [5]: 0.015 µg/mL; EC50 [6]: 0.0492 µg/mL; EC50 [7]: 0.131 µg/mL; IC50 (rhILT4-Fc [8]): 1.55 µg/mL; EC50 [9]: 0.0279 µg/mL
no binding (tested: 20 µg/ml)	no binding (tested: 20 µg/ml)	no binding (tested: 20 µg/ml)	no binding (tested: 20 µg/ml)	no binding (tested: 20 µg/ml)	no binding (tested: 20 µg/ml)	no binding (tested: 20 µg/ml)	no binding (tested: 20 µg/ml)	no binding (tested: 20 µg/ml)	21D9.IgG1.1f (antibody, Parent 21D9 in IgG1.1f (L234A, L235E, G237A, A330S, P331S); also called ILT4.6.IgG1.1) heavy: EGQLLESGGDLVQPGGSLRLSCATSGFTFSNYAMNWVRQAPGKGLEWISVISVSGGSTYYADSVKGRFTISRDNSKNTLYLQMNSLRAEDTAVYYCAKDYYYDSGSYYDSFFDYWGQGTLVTVSSASTKGPSVFPLAPSSKSTSGGTAALGCLVKDYFPEPVTVSWNSGALTSGVHTFPAVLQSSGLYSLSSVVTVPSSSLGTQTYICNVNHKPSNTKVDKRVEPKSCDKTHTCPPCPAPEAEGAPSVFLFPPKPKDTLMISRTPEVTCVVVDVSHEDPEVKFNWYVDGVEVHNAKTKPREEQYNSTYRVVSVLTVLHQDWLNGKEYKCKVSNKALPSSIEKTISKAKGQPREPQVYTLPPSREEMTKNQVSLTCLVKGFYPSDIAVEWESNGQPENNYKTTPPVLDSDGSFFLYSKLTVDKSRWQQGNVFSCSVMHEALHNHYTQKSLSLSPGK light: not shown	EC50 [10]: 0.046 µg/mL; IC50 (rhILT4-Fc [11]): 0.918 µg/mL; IC50 (rhILT4-Fc [12]): 2.88 µg/mL
